According to PMC3792639, “Complex structure of type VI peptidoglycan muramidase effector and a cognate immunity protein” (Acta Crystallographica Section D: Biological Crystallography, 2013):

T1: Tse3 (type VI secretion exported 3), native recombinant protein (P. aeruginosa, UniProt Q9HYC5 1-408)
T1 construct: Tse3, type VI secretion exported 3, peptidoglycan muramidase effector of Pseudomonas aeruginosa; full-length, synthetic gene in pET-22b (NdeI/XhoI); Removal of the His tag is not mentioned; also called muramidase effector; source: E. coli BL21(DE3), purified (Ni-NTA, cation exchange, SEC)
T1 sequence: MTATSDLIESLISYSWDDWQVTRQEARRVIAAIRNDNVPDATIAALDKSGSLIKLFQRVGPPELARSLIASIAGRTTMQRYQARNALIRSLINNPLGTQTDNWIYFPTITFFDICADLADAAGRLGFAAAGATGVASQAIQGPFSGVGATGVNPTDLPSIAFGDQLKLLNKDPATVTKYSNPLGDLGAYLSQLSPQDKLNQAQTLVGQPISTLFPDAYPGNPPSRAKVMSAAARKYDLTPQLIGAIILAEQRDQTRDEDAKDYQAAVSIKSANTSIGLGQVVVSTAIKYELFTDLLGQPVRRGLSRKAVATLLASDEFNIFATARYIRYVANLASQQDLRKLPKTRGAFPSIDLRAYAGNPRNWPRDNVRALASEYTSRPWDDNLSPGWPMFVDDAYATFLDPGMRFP

B1: Tsi3, truncated, without the N-terminal signal peptide (wild type) (natural protein)
chain: GVDFDKTLTHPNGLVVERPVGFDARRSAEGFRFDEGGKLRNPRQLEVQRQDAPPPPDLASRRLGDGEARYKVEEDDGGSAGSEYRLWAAKPAGARWIVVSASEQSEDGEPTFALAWALLERARLQ
notes: Tsi3, immunity protein of Tse3, Pseudomonas aeruginosa; truncated, without the N-terminal signal peptide (residues 1-20); synthetic gene in pET-22b (NdeI/XhoI); also called wild-type Tsi3; cognate immunity protein; source: E. coli BL21(DE3), purified (Ni-NTA, ion exchange, SEC)
B2: Tsi3 E103A (natural protein)
chain: GVDFDKTLTHPNGLVVERPVGFDARRSAEGFRFDEGGKLRNPRQLEVQRQDAPPPPDLASRRLGDGEARYKVEEDDGGSAGSAYRLWAAKPAGARWIVVSASEQSEDGEPTFALAWALLERARLQ
notes: Tsi3, Pseudomonas aeruginosa, mutant of the truncated construct without the signal peptide (residues 1-20)
B3: Tsi3 E126A (natural protein)
chain: GVDFDKTLTHPNGLVVERPVGFDARRSAEGFRFDEGGKLRNPRQLEVQRQDAPPPPDLASRRLGDGEARYKVEEDDGGSAGSEYRLWAAKPAGARWIVVSASEQSADGEPTFALAWALLERARLQ
notes: as for B2
B4: Tsi3 Q124A (natural protein)
chain: GVDFDKTLTHPNGLVVERPVGFDARRSAEGFRFDEGGKLRNPRQLEVQRQDAPPPPDLASRRLGDGEARYKVEEDDGGSAGSEYRLWAAKPAGARWIVVSASEASEDGEPTFALAWALLERARLQ
notes: as for B2
B5: Tsi3 S99A (natural protein)
chain: GVDFDKTLTHPNGLVVERPVGFDARRSAEGFRFDEGGKLRNPRQLEVQRQDAPPPPDLASRRLGDGEARYKVEEDDGGAAGSEYRLWAAKPAGARWIVVSASEQSEDGEPTFALAWALLERARLQ
notes: as for B2

The binders below were run against T1, Tse3 (type VI secretion exported 3), … (assay: not stated; stoichiometry observed in solution; method not given). Conditions: both partners purified.

For B1, the “stoichiometry N” value was 1.

The binders below were run against T1, Tse3 (type VI secretion exported 3), … (assay: SPR; Biacore 3000, 298 K; Tse3 immobilised on a CM5 chip (2689.1-3396.3 RU); Tsi3 injected, single-cycle kinetics, five concentrations (0.02-1.62 µM for wild type, E103A, Q124A; 0.1-8.1 µM for R60A, S99A, E126A); running buffer 50 mM HEPES pH 7.5, 100 mM NaCl, 0.005% Tween-20; 1:1 Langmuir fit). Conditions: both partners purified.

Point of comparison: B1, Kd 28.1 nM. Against it:
- B2 — 1.6-fold higher, 43.6 nM
- B3 — 15-fold higher, 417 nM
- B4 — 2.1-fold higher, 58.8 nM
- B5 — 120-fold higher, 3290 nM

Point of comparison: B1, kon 12900 M⁻¹ s⁻¹. Against it:
- B2 — within 1.5-fold, 14300 M⁻¹ s⁻¹
- B3 — within 1.5-fold, 12100 M⁻¹ s⁻¹
- B4 — within 1.5-fold, 17300 M⁻¹ s⁻¹
- B5 — within 1.5-fold, 8990 M⁻¹ s⁻¹
